T1: PUF4 RNA-binding domain (Saccharomyces cerevisiae, UniProt P25339 537-888)
T1 sequence: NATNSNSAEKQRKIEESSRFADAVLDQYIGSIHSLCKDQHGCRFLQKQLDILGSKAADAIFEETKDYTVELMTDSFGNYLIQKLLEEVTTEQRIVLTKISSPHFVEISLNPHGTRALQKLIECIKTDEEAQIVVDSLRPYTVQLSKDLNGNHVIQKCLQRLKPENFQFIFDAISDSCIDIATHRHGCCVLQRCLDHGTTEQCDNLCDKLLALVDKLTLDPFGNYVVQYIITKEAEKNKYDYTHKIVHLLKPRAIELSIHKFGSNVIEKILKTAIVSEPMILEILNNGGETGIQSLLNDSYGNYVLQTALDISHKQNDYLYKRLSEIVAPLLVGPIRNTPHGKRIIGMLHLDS


biological target: T1, PUF4 RNA-binding domain; assay: Mg; RNA-MaP; 20 mM Na-HEPES pH 7.4, 30 mM KOAc, 0.75 mM MgCl2, 0.1% Tween-20, 5% glycerol, 0.1 mg/mL BSA, 2 mM DTT; 25 C; 0.0125-409.6 nM protein; details: tags: N-His6-TEV cleaved; C-SNAP kept, Cy3B-labelled; label: tethered on chip by stalled RNA polymerase

**Q.** Which Kd does the source give for ACAAACACUAUAUAUUACCACAAAC (ssRNA) [Id_ii_S3_P4E.3_K4.2_C4.2_[C-2A]_[T-1C]_H4.2_A4.1_F4.1_T4.2_[G10C]_[T11C]] here?
**A.** 33.5 nM

**Q.** Which Kd does the source give for ACAAACGUUAUAUAUUAUCACAAAC (ssRNA) [Id_ii_S3_P4E.3_K4.2_C4.2_[C-2G]_H4.2_A4.1_F4.1_T4.2_[G10T]_[T11C]] here?
**A.** 42.4 nM

**Q.** For ACAAACGCUAUAUAUUACAACAAAC (ssRNA) [Id_ii_S3_P4E.3_K4.2_C4.2_[C-2G]_[T-1C]_H4.2_A4.1_F4.1_T4.2_[G10C]_[T11A]], which Kd is on record?
**A.** 24.5 nM

**Q.** With UCUCUUUGUAUGAUUUUCUCUU (ssRNA) [Ib_S1_P5E.1_K5.1_C5.1_H5.1_A5.1_[T6G]_F5.1_[A10T]_T5.1] as the binder, how does the Kd read?
**A.** 39.5 nM

**Q.** With ACAAACAGUAUAUAUUAGAACAAAC (ssRNA) [Id_ii_S3_P4E.3_K4.2_C4.2_[C-2A]_[T-1G]_H4.2_A4.1_F4.1_T4.2_[T11A]] as the binder, how does the Kd read?
**A.** 11.3 nM

**Q.** Which Kd does the source give for ACAAACGCUAUAUAUUACCACAAAC (ssRNA) [Id_ii_S3_P4E.3_K4.2_C4.2_[C-2G]_[T-1C]_H4.2_A4.1_F4.1_T4.2_[G10C]_[T11C]] here?
**A.** 27.1 nM

**Q.** For ACAAACCCACACUAUAAGACAAAC (ssRNA) [Id_ii_S3_P3E.4_K3.3_C3.2_[T-1C]_H3.3_A3.1_F3.1_T3.2_[T9A]_[A10G]], which Kd is on record?
**A.** > 2300 nM

**Q.** ACAAACGUUAUAUAUUACUACAAAC (ssRNA) [Id_ii_S3_P4E.3_K4.2_C4.2_[C-2G]_H4.2_A4.1_F4.1_T4.2_[G10C]] was tested. Which Kd did it give?
**A.** 58 nM

**Q.** ACAAACACUAUAUAUUAUGACAAAC (ssRNA) [Id_ii_S3_P4E.3_K4.2_C4.2_[C-2A]_[T-1C]_H4.2_A4.1_F4.1_T4.2_[G10T]_[T11G]] was tested. Which Kd did it give?
**A.** 16.6 nM

**Q.** With ACAAACUAUAUAUAUUACGACAAAC (ssRNA) [Id_ii_S3_P4E.3_K4.2_C4.2_[C-2T]_[T-1A]_H4.2_A4.1_F4.1_T4.2_[G10C]_[T11G]] as the binder, how does the Kd read?
**A.** 27.8 nM

**Q.** How did the Kd turn out when ACAAACCCACACUAUAUUACAAAC (ssRNA) [Id_ii_S3_P3E.4_K3.3_C3.2_[T-1C]_H3.3_A3.1_F3.1_T3.2_[A10T]] was run?
**A.** 2120 nM

**Q.** Which Kd does the source give for ACAAACCCACACUAUAGCACAAAC (ssRNA) [Id_ii_S3_P3E.4_K3.3_C3.2_[T-1C]_H3.3_A3.1_F3.1_T3.2_[T9G]_[A10C]] here?
**A.** > 2300 nM

**Q.** With ACAAACCUACACUAUAGCACAAAC (ssRNA) [Id_ii_S3_P3E.4_K3.3_C3.2_H3.3_A3.1_F3.1_T3.2_[T9G]_[A10C]] as the binder, how does the Kd read?
**A.** 2260 nM

**Q.** ACAAACGAUAUAUAUUAUGACAAAC (ssRNA) [Id_ii_S3_P4E.3_K4.2_C4.2_[C-2G]_[T-1A]_H4.2_A4.1_F4.1_T4.2_[G10T]_[T11G]] was tested. Which Kd did it give?
**A.** 48.6 nM

**Q.** With ACAAACAAUAUAUAUUACUACAAAC (ssRNA) [Id_ii_S3_P4E.3_K4.2_C4.2_[C-2A]_[T-1A]_H4.2_A4.1_F4.1_T4.2_[G10C]] as the binder, how does the Kd read?
**A.** 28.2 nM

**Q.** How did the Kd turn out when ACAAACGAUAUAUAUUAAUACAAAC (ssRNA) [Id_ii_S3_P4E.3_K4.2_C4.2_[C-2G]_[T-1A]_H4.2_A4.1_F4.1_T4.2_[G10A]] was run?
**A.** 40.7 nM

**Q.** ACAAACCUACACUAUAGAACAAAC (ssRNA) [Id_ii_S3_P3E.4_K3.3_C3.2_H3.3_A3.1_F3.1_T3.2_[T9G]] was tested. Which Kd did it give?
**A.** > 2300 nM

**Q.** Which Kd does the source give for ACAAACGCUAUAUAUUAAUACAAAC (ssRNA) [Id_ii_S3_P4E.3_K4.2_C4.2_[C-2G]_[T-1C]_H4.2_A4.1_F4.1_T4.2_[G10A]] here?
**A.** 19.9 nM

**Q.** For ACAAACCGACACUAUAUAACAAAC (ssRNA) [Id_ii_S3_P3E.4_K3.3_C3.2_[T-1G]_H3.3_A3.1_F3.1_T3.2], which Kd is on record?
**A.** > 2300 nM

**Q.** For UCUCUUUGUAUGAUUCUCUCUU (ssRNA) [Ib_S1_P5E.1_K5.1_C5.1_H5.1_A5.1_[T6G]_F5.1_[A10C]_T5.1], which Kd is on record?
**A.** 90 nM

**Q.** For ACAAACGAUAUAUAUUAACACAAAC (ssRNA) [Id_ii_S3_P4E.3_K4.2_C4.2_[C-2G]_[T-1A]_H4.2_A4.1_F4.1_T4.2_[G10A]_[T11C]], which Kd is on record?
**A.** 52.9 nM

**Q.** How did the Kd turn out when ACAAACAGUAUAUAUUAACACAAAC (ssRNA) [Id_ii_S3_P4E.3_K4.2_C4.2_[C-2A]_[T-1G]_H4.2_A4.1_F4.1_T4.2_[G10A]_[T11C]] was run?
**A.** 38.8 nM

**Q.** For ACAAACCGACACUAUACAACAAAC (ssRNA) [Id_ii_S3_P3E.4_K3.3_C3.2_[T-1G]_H3.3_A3.1_F3.1_T3.2_[T9C]], which Kd is on record?
**A.** > 2300 nM

**Q.** ACAAACCGACACUAUACUACAAAC (ssRNA) [Id_ii_S3_P3E.4_K3.3_C3.2_[T-1G]_H3.3_A3.1_F3.1_T3.2_[T9C]_[A10T]] was tested. Which Kd did it give?
**A.** > 2300 nM

**Q.** Which Kd does the source give for ACAAACGCUAUAUAUUAUUACAAAC (ssRNA) [Id_ii_S3_P4E.3_K4.2_C4.2_[C-2G]_[T-1C]_H4.2_A4.1_F4.1_T4.2_[G10T]] here?
**A.** 14.4 nM

**Q.** ACAAACCUACACUAUAAUACAAAC (ssRNA) [Id_ii_S3_P3E.4_K3.3_C3.2_H3.3_A3.1_F3.1_T3.2_[T9A]_[A10T]] was tested. Which Kd did it give?
**A.** > 2300 nM

**Q.** How did the Kd turn out when ACAAACUUUAUAUAUUAUAACAAAC (ssRNA) [Id_ii_S3_P4E.3_K4.2_C4.2_[C-2T]_H4.2_A4.1_F4.1_T4.2_[G10T]_[T11A]] was run?
**A.** 18.1 nM

**Q.** Which Kd does the source give for ACAAACGAUAUAUAUUAAGACAAAC (ssRNA) [Id_ii_S3_P4E.3_K4.2_C4.2_[C-2G]_[T-1A]_H4.2_A4.1_F4.1_T4.2_[G10A]_[T11G]] here?
**A.** 76.8 nM

**Q.** ACAAACACUAUAUAUUAACACAAAC (ssRNA) [Id_ii_S3_P4E.3_K4.2_C4.2_[C-2A]_[T-1C]_H4.2_A4.1_F4.1_T4.2_[G10A]_[T11C]] was tested. Which Kd did it give?
**A.** 29.6 nM

**Q.** ACAAACUUUAUAUAUUACGACAAAC (ssRNA) [Id_ii_S3_P4E.3_K4.2_C4.2_[C-2T]_H4.2_A4.1_F4.1_T4.2_[G10C]_[T11G]] was tested. Which Kd did it give?
**A.** 19.4 nM

**Q.** How did the Kd turn out when UCUCUUUGUAUCAUUUUCUCUU (ssRNA) [Ib_S1_P5E.1_K5.1_C5.1_H5.1_A5.1_[T6C]_F5.1_[A10T]_T5.1] was run?
**A.** 7.85 nM

**Q.** How did the Kd turn out when ACAAACUCUAUAUAUUAUCACAAAC (ssRNA) [Id_ii_S3_P4E.3_K4.2_C4.2_[C-2T]_[T-1C]_H4.2_A4.1_F4.1_T4.2_[G10T]_[T11C]] was run?
**A.** 16.3 nM
